Data published in article PMC9393700.

Experiments:
Assay in all cases: SEC; Superdex S200 16/600 column; purified F proteins (Figure 2A)
[1] = biological target: RSV head hMPV stem construct 1 (RHMS-1) (respiratory syncytial virus (RSV-A in Figure 1B) | human metapneumovirus (hMPV-A1 in Figure 1B)) (UniProt P03420)
[2] = biological target: trypsin-treated hMPV B2 F (human metapneumovirus B2)
[3] = biological target: RSV A2 F DsCav1 (trimer) (respiratory syncytial virus A2)

Question: How did the stoichiometry N [1] turn out when “RSV head hMPV stem construct 1 (RHMS-1) (from UniProt P03420 1-25; P03420 55-314)” was run?
Answer: Its stoichiometry N is 3.

Question: With “trypsin-treated hMPV B2 F (natural protein)” as the substance, how does the stoichiometry N [2] read?
Answer: Its stoichiometry N is 3.

Question: “RSV A2 F DsCav1 (trimer) (natural protein)” was tested. Which stoichiometry N [3] did it give?
Answer: Its stoichiometry N is 3.
